Bridge positions count the residues as written; N and C are the ends. Ends that are not written are not given here.
Legend:
[1] = target: purified gC1qR/p32 protein (coated onto microtiter wells) (human) (UniProt Q07021); assay: phage binding to purified p32 coated on microtiter wells, plaque assay
[2] = target: purified gC1qR/p32 protein (coated onto microtiter wells) (human) (UniProt Q07021); assay: inhibition of phage binding to purified p32 on wells; competitor LyP-1 phage; 20 µg/ml mAb
[3] = target: gC1qR/p32 at the cell surface (C8161 cells transfected with p32 cDNA; MDA-MB-435 and MDA-MB-435 S35 cells; Raji cells) (human) (UniProt Q07021); assay: inhibition of LyP-1 phage binding to Raji cells; competitor LyP-1 phage; 40 µg/ml mAb
[4] = target: T1, endogenous gC1qR/p32 of tumor cells and tissues (extracts of MDA-MB-435 cells, BT549 cells, MDA-MB-435 tumor … (human, UniProt Q07021 74-282)); assay: pull-down from MDA-MB-435 cell extract with biotinylated peptide on streptavidin beads, anti-p32 immunoblot
T1 construct: mature; 33 kD band in cell extracts; in tumor xenograft extracts an additional 75 kD band was also identified as gC1qR/p32; also called gC1q/p32 receptor; p32/p33/gC1qR/HABP1
T1 sequence (looked up): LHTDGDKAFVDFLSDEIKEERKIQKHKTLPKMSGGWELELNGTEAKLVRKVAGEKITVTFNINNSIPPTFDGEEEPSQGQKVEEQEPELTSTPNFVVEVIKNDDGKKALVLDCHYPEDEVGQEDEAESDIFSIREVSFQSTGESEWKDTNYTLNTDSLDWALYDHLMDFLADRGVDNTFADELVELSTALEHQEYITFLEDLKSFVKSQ
Text: A tumor homing peptide, CREKA (SEQ ID NO: 3), and a peptide CRV which resembles Lyp-1 in its amino acid composition and cyclic structure (SEQ ID NO: 4, […]), were used as negative controls. (a) Left panel: silver staining of Lyp-1 bound proteins. The arrow indicates a specific 33 kD band, which was identified as gC1q/p32R by mass spectrometry. Right panel: immunoblot of total cell extract (Tot lysate) and proteins bound to Lyp-1 and control peptides using a monoclonal antibody against gC1q/p32 receptor. The antibody recognizes a band of 33 kD in the total proteins lysate and in the Lyp-1 pull down. Anti gC1q/p32 receptor reactive bands are not detected in the pull downs from both control peptides. […] The monoclonal antibody against gC1qR/p32 recognized a 75 kD and a 33 kD band only in the Lyp-1 peptide pull down (b-right panel).
A tumor homing peptide, CREKA (SEQ ID NO:3), and a peptide CRV which resembles Lyp-1 in its amino acid composition and cyclic structure (SEQ ID NO:4, […]), were used as negative controls. The Lyp-1 bound proteins were visualized using silver staining and immunobloting. […] The arrow indicates a specific 33 kD band, which was identified as gC1qR/p32 by mass spectrometry. […] The antibody recognizes a band of 33 kD in the total proteins lysate and in the Lyp-1 pull down. Anti gC1qR/p32 reactive bands are not detected in the pull downs from both control peptides.

[5] = target: T2, gC1qR/p32 at the cell surface (C8161 cells transfected with p32 cDNA); MDA-MB-435 and MDA-MB-435 S35 cells; … (human, UniProt Q07021 74-282); assay: FACS of FITC-peptide on live MDA-MB-435 cells transfected with p32 siRNA or control siRNA
T2 construct: whole, on cells; also called cell surface p32; cell surface gC1qR/p32
T2 sequence (looked up): T1 sequence (looked up)
Protocol: 48 hours after transfection, inhibition of p32 expression was checked by immunoblot analysis and immunostaining (upper panels). β-actin was used as a control. (Lower panels) cells transfected with p32 siRNA or control siRNA were incubated for 1 h at 4 °C in the presence of 10 μM FITC conjugated LyP-1 peptide or a control peptide, […] (ARAL, SEQ ID NO: 5), which has same overall charge as LyP-1. Cells incubated in the absence of peptide served as negative control. Down-regulation of p32 expression reduced LyP-1 binding to the cells (left panel), but control peptide fluorescence was unaffected (right panel). A representative experiment out of three is shown. C. […] Insertless phage was used to determine background phage binding. The results are representative of three independent experiments and are expressed as percentage of phage binding (±SD), with binding of LyP-1 phage in the presence of mIgG1 set as 100%.
MDA-MB-435 cells were transiently transfected with gC1qR/p32-specific or control siRNAs. […] The amount of fluorescence in living cells was analyzed by FACS. Cells incubated in the absence of peptide served as FITC negative control.

LyP-1 phage (phage displaying the LyP-1 peptide)
fold binding over insertless control phage [1]: 60 fold

mouse monoclonal anti-gC1qR/p32 antibody 60.11
percent reduction of LyP-1 phage binding [2]: 90%
percent reduction of LyP-1 binding [3]: 50%

B1: biotinylated CREKA peptide (peptide)
peptide: CREKA
modifications: also: biotinylated, site not given here
notes: Negative control in the pull-down; also called control peptide
binding result [4]: no binding

B2: biotinylated CRV peptide (CRVRTRSGC) (peptide)
peptide: CRVRTRSGC
modifications: disulfide 1-9 (inferred); also: biotinylated, site not given here
notes: as for B1
binding result [4]: no binding

B3: FITC conjugated control peptide ARALPSQRSR (peptide)
peptide: ARALPSQRSR
modifications: also: FITC conjugated, site not given here
notes: Same overall charge as LyP-1
binding result [5]: no binding (tested: 10 µM)

— patent US20080014143A1 (SANFORD BURNHAM MEDICAL RESEARCH INSTITUTE, published 2008)
